Experimental data: patent US6506595

Assays:
[1] = molecular target: MWPmp20-(His)6-EGF-TEV-Somatostatin 28

B1: TEV protease (GIBCO BRL) (protein)
chain: GESLFKGPRDYNPISSTICHLTNESDGHTTSLYGIGFGPFIITNKHLFRRNNGTLLVQSLHGVFKVKNTTTLQQHLIDGRDMIIIRMPKDFPPFPQKLKFREPQREERICLVTTNFQTKSMSSMVSDTSCTFPSSDGIFWKHWIQTKDGQCGSPLVSTRDGFIVGIHSASNFTNTNNYFTSVPKNFMELLTNQEAQQWVSGWRLNADSVLWGGHKVFMSKPEEPFQPVKEATQLMNELVYSQ
cleavage of the fusion protein, shown by Western blotting [1]: somatostatin 28 was cleaved out with TEV protease | cleavage of the fusion protein, shown by SDS-PAGE and Western blotting (MWPmp20-TEV-G-GH): the mutant human growth hormone G-GH with extra Gly at the N-terminus was cleaved at the same position (as indicated by an arrow) as the commercially available human growth hormone
